Experimental data published in patent US6884600.

Tests used:
[1] = molecular target: catalytic subunit of protein phosphatase-1, γ1-isoform (PP1γ1), produced in Escherichia coli (UniProt P36873); test: co-crystal structure at 3.0 Å, method of Lee and Richards
[2] = molecular target: T1, GST-M110-(M1-E309), GST tag not cleaved
T1 chain: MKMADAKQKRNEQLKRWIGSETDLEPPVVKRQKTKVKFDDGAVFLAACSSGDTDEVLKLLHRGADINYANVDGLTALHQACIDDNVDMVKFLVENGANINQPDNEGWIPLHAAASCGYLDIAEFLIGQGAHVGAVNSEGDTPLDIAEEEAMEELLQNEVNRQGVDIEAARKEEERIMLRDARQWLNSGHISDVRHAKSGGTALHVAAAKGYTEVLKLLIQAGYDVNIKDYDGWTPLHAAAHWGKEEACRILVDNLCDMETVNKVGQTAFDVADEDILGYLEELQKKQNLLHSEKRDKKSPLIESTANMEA

catalytic subunit of protein phosphatase-1, γ1-isoform (PP1γ1), produced in Escherichia coli, sequence (P36873 whole entry, canonical isoform): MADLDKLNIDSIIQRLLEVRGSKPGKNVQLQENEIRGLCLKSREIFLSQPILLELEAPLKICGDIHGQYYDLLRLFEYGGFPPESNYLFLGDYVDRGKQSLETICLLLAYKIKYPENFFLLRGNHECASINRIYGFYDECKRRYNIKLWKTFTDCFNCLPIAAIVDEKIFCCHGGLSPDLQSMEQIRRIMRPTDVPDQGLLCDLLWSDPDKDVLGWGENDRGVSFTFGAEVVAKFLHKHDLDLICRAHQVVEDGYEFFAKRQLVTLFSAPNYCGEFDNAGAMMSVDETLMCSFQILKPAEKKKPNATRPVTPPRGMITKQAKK

## GRRVSFADNFGFN [GM-(G63-N75) synthetic peptide]
[1]
  total solvent accessible surface area buried on formation of the complex: 980 Å2

B1: β isoform of PP1c released from rabbit skeletal muscle PP1G (protein)
chain: ADGELNVDSLITRLLEVRGCRPGKIVQMTEAEVRGLCIKSREIFLSQPILLELEAPLKICGDIHGQYTDLLRLFEYGGFPPEANYLFLGDYVDRGKQSLETICLLLAYKIKYPENFFLLRGNHECASINRIYGFYDECKRRFNIKLWKTFTDCFNCLPIAAIVDEKIFCCHGGLSPDLQSMEQIRRIMRPTDVPDTGLLCDLLWSDPDKDVQGWGENDRGVSFTFGADVVSKFLNRHDLDLICRAHQVVEDGYEFFAKRQLVTLFSAPNYCGEFDNAGGMMSVDETLMCSFQILKPSEKKAKYQYGGLNSGRPVTPPRTANPPKKR
[2]
  concentration needed to modulate the substrate specificity of PP1c, relative to the cleaved fragment: If the GST tags were not cleaved with thrombin, a 10-fold higher concentration of M110-(M1-E309) was needed to modulate the substrate specificity of PP1c
